The text below walks through data of US20170145113A1 (Genentech, published 2017).

Experiment [1] concerns the target endogenous HtrA1 from media of HtrA1-secreting human C32 melanoma cells (human, UniProt Q92743 23-480). In words: cell-based or functional assay.
For experiment [2], the target named is T1, His-tagged human HtrA1 protease domain (human, UniProt Q92743 161-367). In words: cell-based or functional assay.
Experiment [3] deals with T1, His-tagged human HtrA1 protease domain. In words: SPR (BIACORE), Fab. Background: SPR reads the build-up and loss of mass on a sensor chip optically.
The target of a further experiment is T2, LA-pep4.
T2 construct: The changed residue is printed as an image; A is put in by the column 'AA change' (P4A); also called P4A
T2 peptide: RKLAFSKREVPV
The experiment can be described thus: SPR, peptide and Fab.

The target of a further experiment is T3, LA-pep6.
T3 construct: The changed residue is printed as an image; A is put in by the column 'AA change' (R8A); also called R8A
T3 peptide: RKLPFSKAEVPV
In words: SPR, peptide and Fab.

The target of a further experiment is T4, LA-pep3.
T4 construct: The changed residue is printed as an image; A is put in by the column 'AA change' (L3A); also called L3A
T4 peptide: RKAPFSKREVPV
In words: SPR, peptide and Fab.

Another experiment concerns the target T5, LA-pep2.
T5 construct: The changed residue is printed as an image; A is put in by the column 'AA change' (R1A); also called R1A
T5 peptide: AKLPFSKREVPV
In words: SPR, peptide and Fab.

A further experiment deals with T6, LA-pep5.
T6 construct: The changed residue is printed as an image; A is put in by the column 'AA change' (F5A); also called F5A
T6 peptide: RKLPASKREVPV
In words: SPR, peptide and Fab.

In experiment [4] the target is T1, His-tagged human HtrA1 protease domain. In words: cell-based or functional assay. The source holds these as a separate data set.
The target in experiment [5] is T7, LA-pep1, peptide corresponding to residues 190-201 of the human HtrA1 sequence (human).
T7 construct: Synthetic peptide; numbering of the human HtrA1 precursor protein; also called LA-pepl; HtrA1 Loop A (LA) peptide
T7 peptide: RKLPFSKREVPV
In words: SPR, peptide and Fab.

In experiment [6] the target is T1, His-tagged human HtrA1 protease domain. In words: BIACORE SPR analysis, Fab format. As for the experimental part:
To determine the binding affinity of selected Fab variants for HtrA1, SPR measurement with a BIACORE™ T200 instrument was performed. Briefly, a series S sensor chip CM5 was activated with 1-EDC and NHS reagents according to the supplier's instructions, and anti-His antibody was coupled to achieve 200-300 response units (RU), then following by blocking un-reacted groups with 1 M ethanolamine. For kinetics measurements, approximately 5 nM of huHtrA1-PD-His was first injected at 10 μl/min flow rate to capture approximately 100 RU at 2 different flow cells (FC), except for FC1 (which served as a reference). Next, 5-fold serial dilutions of Fab in HBS-P buffer (0.01M HEPES pH 7.4, 0.15M NaCl, 0.005% surfactant P20) from low (0.8 nM) to high (50 nM) were injected (flow rate: 30 μl/min). The binding responses on HtrA1 were corrected by subtracting of RU from a blank flow cell. The sensorgram was recorded and subject to reference and buffer subtraction before evaluating by BIACORE® T200 Evaluation Software (version 2.0). Association rates (kₒₙ) and dissociation rates (koff) were calculated using a simple one-to-one Langmuir binding model. The equilibrium dissociation constant (KD) was calculated as the ratio of koff/kₒₙ.

Experiment [7] shares this target. The experiment can be described thus: BIACORE T200 SPR; Fab analyte over huHtrA1-PD-His captured by anti-His antibody.

T1 sequence (Q92743 other isoform, or with tags, fused parts or gaps limits assumed): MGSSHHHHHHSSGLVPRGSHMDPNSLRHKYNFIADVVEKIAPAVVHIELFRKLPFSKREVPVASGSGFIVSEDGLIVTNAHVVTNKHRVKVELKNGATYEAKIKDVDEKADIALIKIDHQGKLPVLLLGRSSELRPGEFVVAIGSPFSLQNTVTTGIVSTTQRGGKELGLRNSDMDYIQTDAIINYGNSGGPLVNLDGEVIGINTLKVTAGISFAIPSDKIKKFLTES
Sequence of endogenous HtrA1 from media of HtrA1-secreting human C32 melanoma cells (Q92743 23-480 limits assumed): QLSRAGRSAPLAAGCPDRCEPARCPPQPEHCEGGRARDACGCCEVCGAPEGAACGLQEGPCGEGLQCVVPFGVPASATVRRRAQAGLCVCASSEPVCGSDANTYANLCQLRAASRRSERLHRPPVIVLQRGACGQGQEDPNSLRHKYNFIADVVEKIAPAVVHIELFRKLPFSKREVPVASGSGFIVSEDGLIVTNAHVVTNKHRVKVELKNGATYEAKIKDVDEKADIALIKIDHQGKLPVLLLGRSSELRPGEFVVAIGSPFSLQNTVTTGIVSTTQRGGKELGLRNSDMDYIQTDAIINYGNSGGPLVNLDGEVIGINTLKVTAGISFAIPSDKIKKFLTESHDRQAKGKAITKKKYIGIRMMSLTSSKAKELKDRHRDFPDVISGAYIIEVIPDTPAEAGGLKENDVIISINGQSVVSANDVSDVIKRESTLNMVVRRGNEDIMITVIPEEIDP

B1: h15H6.v4 Fab (Fab, V domains shown)
VH: EVQLVQSGAEVKKPGASVKVSCKASGYKFTDSEMHWVRQAPGQGLEWIGGVDPETEGAAYNQKFKGRATITRDTSTSTAYLELSSLRSEDTAVYYCTRGYDYDYALDYWGQGTLVTVSS
VL: DIQMTQSPSSLSASVGDRVTITCRASSSVEFIHWYQQKPGKAPKPLISATSNLASGVPSRFSGSGSGTDFTLTISSLQPEDFATYYCQQWSSAPWTFGQGTKVEIK
notes: Tested as Fab; also called APEG.LC3.HC3; Fab15H6.v4
With B1, the “IC50, endogenous HtrA1 activity assay (H2-Opt)” value in experiment [1] is approximately 1.12 nM. Further, in experiment [2], the “IC50, FRET-based H2-Opt blocking assay” value was approximately 0.386 nM and the “IC50, mass spectrometry-based activity assay (cleavage of intact α-casein)” value was approximately 45 nM. In addition, the “fold improvement in affinity against YW505.94a.28 Fab” value in experiment [3] was approximately 30 fold. In the experiment with LA-pep4, the “affinity loss (KD mutant/KD wild-type)” value is more than 2500 fold and the binding result is listed as “no binding (tested: no binding detected up to 1 µM)”. In the experiment with LA-pep6, the “affinity loss (KD mutant/KD wild-type)” value is more than 2500 fold and the binding result was “no binding (tested: no binding detected up to 1 µM)”. In the experiment with LA-pep3, the “affinity loss (KD mutant/KD wild-type)” value was more than 2500 fold and the binding result is listed as “no binding (tested: no binding detected up to 1 µM)”. Also, in the experiment with LA-pep2, the Kd worked out at 321 nM and the “affinity loss (KD mutant/KD wild-type)” value came to 810 fold. Also, in the experiment with LA-pep5, binding was put at a Kd of 4.53 nM and the “affinity loss (KD mutant/KD wild-type)” value was determined as 11 fold. In addition, in [4], the “IC50 FRET (H2-Opt substrate cleavage)” value came to 0.3 nM, the “IC90 FRET (H2-Opt substrate cleavage)” value was 1.19 nM and the “Max inhibition (FRET H2-Opt assay)” value was determined as 100. This molecule also had a Kd in experiment [5] of 0.4 nM. In experiment [6], this molecule displayed a Kd of 0.106 nM, an off-rate (koff) of 3.29e-05 s⁻¹ and an on-rate constant (kon) of 309000 M⁻¹ s⁻¹. In addition, in [7], the Kd worked out at 0.106 nM, the koff is 3.29e-05 s⁻¹ and the kon came out at 309000 M⁻¹ s⁻¹.

As usually defined, the Kd is a measure of binding affinity in units of concentration. A lower Kd goes with a tighter complex. By koff is commonly meant the first-order rate constant of dissociation. Higher therefore signals fast dissociation. What is called kon is the second-order rate constant of association. Read a low kon as slower complex formation.
